{"source": "patent US20150352207A1", "about": "“USE OF ANTIBODIES AGAINST ICAM-1 IN COMBINATION WITH AN ANTI CANCER DRUG IN THE TREATMENT OF PATIENTS” (BIOINVENT INTERNATIONAL AB, priority 2013, published 2015)", "molecules": {"B1": {"name": "IgG B11: novel human ICAM-1 antibody targeting the B11 epitope, isolated from the naïve antibody library n-CoDeR (antibody, V domains shown)", "VH": "EVQLLESGGGLVQPGGSLRLSCAASGFTFSNAWMSWVRQAPGKGLEWVAFIWYDGSNKYYADSVKGRFTISRDNSKNTLYLQMNSLRAEDTAVYYCARYSGWYFDYWGQGTLVTVSS", "VL": "QSVLTQPPSASGTPGQRVTISCTGSSSNIGAGYDVHWYQQLPGTAPKLLIYDNNNRPSGVPDRFSGSKSGTSASLAISGLRSEDEADYYCQSYDSSLSAWLFGGGTKLTVLG", "modifications": "B11 antibody variable H region; B11 antibody variable L region"}}, "key": {"OPM-2 myeloma cells": {"system": "OPM-2 myeloma cells", "experiment": "Subcutaneous scid myeloma xenograft, OPM-2 (ICAM-1 negative)", "assay_type": "in vivo, scid mice", "settings": "2 mg/kg twice weekly", "experimental": "Antibody treatment with 2 mg/kg B11 or control IgG1 was started at Day 1 and was continued on a twice-weekly intraperitoneal dosing regimen. Mice were sacrificed when tumor sizes reached the ethical limit."}, "human FcγRIIIa": {"target": "T1, human FcγRIIIa (Homo sapiens, UniProt P08637)", "T1 construct": "made in house; host or cells: HEK293E (transient, adherent)", "T1 sequence (P08637 17-254)": "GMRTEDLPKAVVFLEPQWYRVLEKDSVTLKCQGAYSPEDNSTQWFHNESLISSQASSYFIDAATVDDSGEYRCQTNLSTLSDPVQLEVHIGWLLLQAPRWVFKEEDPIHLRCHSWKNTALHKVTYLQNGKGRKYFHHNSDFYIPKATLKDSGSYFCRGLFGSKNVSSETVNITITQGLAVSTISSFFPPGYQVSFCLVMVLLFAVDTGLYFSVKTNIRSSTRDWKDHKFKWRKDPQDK", "experiment": "B11 isotype variant binding to FcγR (Biacore), human FcγRIIIa", "experimental": "His-tagged human FcγRIIIa or mouse FcγRIV were expressed transient in adherent HEK293E cells, purified using Ni-NTA chromatography and characterized using SDS-PAGE and/or Biacore. Surface plasmon resonance (SPR) measurements were performed using a Biacore 3000 instrument. Goat α-human-F(ab)′2 F(ab)′2 fragment (Jackson laboratories) was immobilised with a CM-5 chip using a standard amine coupling protocol. IgG1 B11, IgG4 B11, or 297Q B11 were diluted to 15 and 60 μg/mL respectively and added to the surface at […] for 3 min. His tagged human FcγRIIIa or mouse FcγRIV were pre-incubated with an α-HIS antibody (R&D Systems) at a 2:1 molar ratio before addition to the chip surface, 30 μL/min, 1 min. After each cycle the surface was regenerated twice with glycine buffer pH 1.7."}, "[1]": {"system": "B lymphoma cell line (CL-01)", "experiment": "Antibody-dependent cell-mediated cytotoxicity (ADCC) with natural killer effector cells", "assay_type": "cell-based", "settings": "human Natural Killer effector cells", "description": "Buffy coats from human donors (ordered through Blodcentralen, Lund) were used to isolate peripheral blood mononuclear cells (PBMCs), and subsequently NK cells. Briefly, peripheral blood components were separated using Ficoll Paque PLUS (Amersham Biosciences, Sweden) in LeucoSep tubes (Greiner Bio-One). The PBMC fraction was removed and thoroughly washed in ice-cold DPBS (Invitrogen), before magnetic labeling and separation of the NK cell population using positive or negative NK cell isolation kits and MACS LS columns (Miltenyi Biotec). The purity of the obtained NK cell fractions was analyzed using flow cytometry, after staining with α-CD56 antibodies (BD Biosciences). Target cells were harvested, and incubated in medium with or without the respective antibodies (2 μg/mL) for 60 min on ice. Cells were thereafter washed and resuspended in cold medium before dispension into FACS tubes. Subsequently, isolated NK cells were diluted in ADCC medium and dispensed together with the respective antibody-coated target cells at varying effector/target cell ratios (40:1, 20:1, 5:1 and 1:1). All experiments were performed in triplicates. After completed incubation ToPo-Pro-3 dye and counting beads (Invitrogen) were added and cells were analyzed for membrane permeabilization using flow cytometry."}, "Daudi lymphoma cells": {"system": "Daudi lymphoma cells", "experiment": "Programmed cell death (PCD) assay, Daudi cells", "assay_type": "cell-based", "experimental": "(§1) Target cells were seeded in 96-well culture plates at a density of 2×10^6 cells/mL culture medium. Titrated concentrations of IgG1 B11 or different negative and positive control antibodies were added to the cells, in the absence or presence of anti-human Fab fragment (Jackson ImmunoResearch) for cross-linking. The cells were then incubated for 16 hours at 37° C. in a humidified atmosphere of 5% CO2. The cells were harvested and stained for Annexin V-488/Propidium Iodide (Invitrogen, Sweden) and analysed using flow cytometer (FACS Calibur, BD Bioscience)."}, "[2]": {"system": "HUVEC and HMVEC endothelial cells", "experiment": "PCD in normal ICAM-1 expressing endothelial cells", "assay_type": "cell-based", "settings": "resting or activated HUVEC/HMVEC", "experimental": "as §1"}, "peripheral blood B cells": {"system": "peripheral blood B cells", "experiment": "PCD in normal peripheral blood B cells", "assay_type": "cell-based", "settings": "resting or activated peripheral blood B cells", "experimental": "as §1"}, "[3]": {"system": "HUVEC, HMVEC or peripheral blood B cells", "experiment": "CDC of normal ICAM-1 expressing cells", "assay_type": "cell-based", "experimental": "Target cells were harvested and incubated in RPMI medium with antibodies at 5 μg/mL or at titrated concentrations between 0.01-100 μg/mL for 60 min on ice. Cells were thereafter washed and resuspended in cold medium before dispension into flow cytometry tubes. Treatments were performed in triplicates. Human serum, normal or heat-inactivated, (Sigma, Sweden) was added to tubes and the samples were incubated for 2 h at 37° C. After completed incubation ToPo-Pro-3 was added at a final concentration of 0.3 μM and cells were analyzed for membrane permeabilization using flow cytometry."}, "PBMC [4]": {"system": "PBMC", "experiment": "PBMC cytokine release", "assay_type": "cell-based", "description": "(§2) We next assessed IgG B11 effects on PBMC cytokine release and cell proliferation. In order to maximize chances of identifying any PBMC agonistic properties of IgG B11, we used two different antibody coating-protocols where antibody is hyper-cross-linked as previously described (62)."}, "PBMC [5]": {"system": "PBMC", "experiment": "PBMC / T cell proliferation", "assay_type": "cell-based", "settings": "immobilised antibody or in solution", "description": "as §2"}, "[6]": {"experiment": "Serum antibody levels of treated xenografted mice (ELISA)", "assay_type": "in vivo", "settings": "serum at end of experimentation", "experimental": "We next performed a dose-titration experiment to establish IgG B11 in vivo potency and the minimal dose achieving maximal anti-tumor activity, using the scid/ARH-77 model system. […] Mouse serum antibody trough concentrations were determined by ELISA at the end of experimentation. Trough antibody concentrations were then plotted against percent of maximal in vivo anti-tumour activity, and against percent of maximal ICAM-1 receptor occupancy and tumour cell PCD at corresponding antibody concentrations in vitro (FIGS. 3C, 3D, 3E, 3F and 3G). Strikingly, a near perfect correlation between antibody concentration and in vitro tumour cell receptor occupancy, in vitro tumor cell PCD, and in vivo anti-tumour activity was observed, consistent with ICAM-1 dependent direct cell cytotoxicity underlying in vivo anti-tumour activity."}, "ARH-77 xenograft tissues": {"system": "ARH-77 xenograft tissues", "settings": "compared to control IgG, untreated and rituximab-treated mice", "procedure": "(A) ARH-77 cells were injected subcutaneously into the left flank of SCID mice (n=8 per group). Mice were treated with the different B11 isotypes twice weekly. […] Statistical significance was calculated relative to control antibody treatment using Kruskal-Wallis Test (Nonparametric ANOVA) with Dunn's Multiple Comparisons Test. Statistical significance was considered for *p<0.05, **p<0.01, and ***p<0.001."}, "ARH-77 tumors": {"system": "ARH-77 tumors", "experiment": "Advanced (established, palpable tumors) scid/ARH-77 xenograft model", "settings": "IgG B11 effective even at 100-fold lower dose (0.2 mg/kg) than rituximab", "procedure": "Mice were anaesthetized with a mixture of sevofluran and oxygen prior to myeloma cell inoculation and 1-5×10^6 myeloma cells were then subcutaneously injected in a volume of 100 μl into the left flank. Treatment with antibodies by intraperitonial (i.p.) injections was started either the day after cell inoculation (prophylactic model) or when tumors reached a size of approximately 100 mm^3 (established model). Antibodies were administrated in PBS in a total volume of 200 μL. Treatment with PBS or isotype control was used as control. Tumors were measured with a digital calliper and the tumor volumes were calculated according to formula: width^2×length×0.52. Animals were sacrificed when the tumor sizes reached the ethical limit of 1.5 cm. Surviving mice were sacrificed after a maximum of 5 months. Blood samples collected from the vena cava were centrifuged at 2500 g for 15 min to obtain serum and the samples were stored at −20° C. Tumors were removed for immunohistochemistry, snap frozen and were kept at −85° C."}}, "note": "Entries after “also recorded” stand apart in the source; their conditions may differ. Like-named read-outs stand apart in the source and are kept apart here.", "data": [{"molecule": "B1", "values": [{"measurement": "effect on tumor growth", "setting": "OPM-2 myeloma cells", "value": "no effect on tumor growth; also recorded: did not affect tumor growth"}, {"measurement": "binding to human FcγRIIIa", "setting": "human FcγRIIIa", "value": "bound to human FcγRIIIa"}, {"measurement": "ADCC of target tumor cells", "setting": "[1]; listed as B11", "value": "mediated FcγRIIIA-dependent ADCC"}, {"measurement": "ADCC of target tumor cells", "setting": "[1]; listed as IgG B11 IgG1", "value": "mediated ADCC of target tumor cells"}, {"measurement": "PCD-induction", "setting": "Daudi lymphoma cells; ICAM-1 expressing Daudi lymphoma cells", "value": "dose dependent PCD-induction"}, {"measurement": "programmed cell death by immobilised antibody", "setting": "Daudi lymphoma cells; antibody immobilised by either coating protocol, data not shown", "value": "induced programmed cell death"}, {"measurement": "programmed cell death of normal endothelial cells", "setting": "[2]", "value": "did not, however, induce PCD"}, {"measurement": "programmed cell death of normal B cells", "setting": "peripheral blood B cells", "value": "did not, however, induce PCD"}, {"measurement": "programmed cell death of normal B cells", "setting": "peripheral blood B cells; listed as B11", "value": "not significantly affected"}, {"measurement": "CDC of normal cells", "setting": "[3]", "value": "did not confer ADCC or CDC"}, {"measurement": "CDC of normal cells", "setting": "[3]; listed as B11", "value": "not significantly affected"}, {"measurement": "PBMC cytokine release", "setting": "PBMC [4]; antibody in solution, resting or lipopolysaccharide pre-stimulated PBMCs", "value": "did not induce or enhance cytokine release"}, {"measurement": "PBMC cytokine release", "setting": "PBMC [4]; immobilised antibody, or in solution with or without cross-linking reagent", "value": "did not, however, induce PBMC cytokine release"}, {"measurement": "PBMC cytokine release", "setting": "PBMC [4]; immobilised antibody, or in solution with or without cross-linking reagent, listed as B11", "value": "not significantly affected"}, {"measurement": "cell proliferation", "setting": "PBMC [5]", "value": "did not induce cell proliferation"}, {"measurement": "cell proliferation", "setting": "PBMC [5]; listed as B11", "value": "not significantly affected"}, {"measurement": "In vivo IgG Levels", "setting": "[6]; Dose 0.02 mg/kg", "value": "0.06 ± 0.02", "unit": "µg/mL"}, {"measurement": "In vivo IgG Levels", "setting": "[6]; Dose 0.2 mg/kg", "value": "1.2 ± 0.4", "unit": "µg/mL"}, {"measurement": "In vivo IgG Levels", "setting": "[6]; Dose 2 mg/kg", "value": "20 ± 2.9", "unit": "µg/mL"}, {"measurement": "F4/80 positive host effector cell (macrophage) infiltration of tumor tissue", "setting": "ARH-77 xenograft tissues", "value": "massive influx"}, {"measurement": "F4/80 positive host effector cell (macrophage) infiltration of tumor tissue", "setting": "ARH-77 xenograft tissues; listed as B11", "value": "significantly increased"}, {"measurement": "animal survival", "setting": "ARH-77 tumors", "value": "prolonged animal survival"}, {"measurement": "tumor growth", "setting": "ARH-77 tumors", "value": "significantly prevented tumor growth"}]}]}
